{"source": "FireProtDB (doi:10.1021/bi962939w)", "conditions": "Mus musculus, 25 °C, CD, whole UniProt chain shown", "key": {"[1]": {"conditions": "pH 4, Urea, Sodium acetate 10 mM"}}}
{"protein": "Interleukin-6 wild type, P08505 (protein) MKFLSARDFHPVAFLGLMLVTTTAFPTSQVRRGDFTEDTTPNRPVYTTSQVGGLITHVLWEIVEMRKELCNGNSDCMNNDDALAENNLKLPEIQRNDGCYQTGYNQEICLLKISSGLLEYHSYLEYMKNNLKDNKKDKARVLQRDTETLIHIFNQEVKDLHKIVLPTPISNALLTDKLESQKEWLRTKTIQFILKSLEEFLKVTLRSTRQT", "values": [{"measurement": "denaturant m value", "setting": "[1]", "value": 3, "unit": "kcal/mol/M"}, {"measurement": "denaturant midpoint (higher = more stable)", "setting": "[1]", "value": 3.59, "unit": "M"}, {"measurement": "unfolding free energy", "setting": "[1]", "value": 10.8, "unit": "kcal/mol"}, {"measurement": "denaturant m value", "setting": "pH 7.4, GdnHCl, Tris-HCl 10 mM", "value": 1, "unit": "kcal/mol/M"}, {"measurement": "denaturant midpoint (higher = more stable)", "setting": "pH 7.4, GdnHCl, Tris-HCl 10 mM", "value": 1.9, "unit": "M"}, {"measurement": "unfolding free energy", "setting": "pH 7.4, GdnHCl, Tris-HCl 10 mM", "value": 1.9, "unit": "kcal/mol"}, {"measurement": "denaturant m value", "setting": "pH 7.4, Urea, Tris-HCl 10 mM", "value": 1.1, "unit": "kcal/mol/M"}, {"measurement": "denaturant midpoint (higher = more stable)", "setting": "pH 7.4, Urea, Tris-HCl 10 mM", "value": 5.2, "unit": "M"}, {"measurement": "unfolding free energy", "setting": "pH 7.4, Urea, Tris-HCl 10 mM", "value": 5.7, "unit": "kcal/mol"}]}
